Several values for one entry are separate records, joined by “and”; a condition that tells them apart may be missing. Identical values can stand only once. Like-named read-outs stand apart in the source and are kept apart here.
Assays:
[1] = biological target: T1, Biotinylated SARS-CoV-2 S protein RBD with a C-terminal AviTag (SARS-CoV-2, UniProt P0DTC2 319-541)
[2] = biological target: T2, SARS-CoV-1 spike protein RBD (SARS-CoV-1, UniProt P59594 306-527); assay: ELISA: coated SARS-CoV-1 RBD, NIH-CoVnb-112 titrated, absorbance 450 nm
T2 construct: domain: RBD

[3] = biological target: T3, SARS-CoV-2 spike protein receptor binding domain (RBD), recombinant (SARS-CoV-2, UniProt P0DTC2 319-541); assay: direct binding to RBD wild type (FIG. 7B); format not described further
[4] = biological target: T3, SARS-CoV-2 spike protein receptor …; assay: competition ELISA, RBD coated, competitor biotinylated ACE2
[5] = biological target: T3, SARS-CoV-2 spike protein receptor …; assay: kinetic measurement, method not stated; table row prototype RBD
[6] = biological target: T3, SARS-CoV-2 spike protein receptor …; assay: ELISA: coated SARS-CoV-2 RBD, NIH-CoVnb-112 titrated, absorbance 450 nm
[7] = biological target: T3, SARS-CoV-2 spike protein receptor …
[8] = biological target: T1, Biotinylated SARS-CoV-2 S protein RBD …; remark: listed apart in the source
[9] = biological target: T3, SARS-CoV-2 spike protein receptor …; remark: listed apart in the source
[10] = biological target: T1, Biotinylated SARS-CoV-2 S protein RBD …; assay: biolayer interferometry (FIG. 7C)

B1: NIH-CoVnb-103 (VHH, not shown: large carriers)
VHH: DVQLQESGGGLVQPGGSLRLSCAASGLTLDYYTIGWFRQAPGKEREGVSCISSSDDSTYYADSVKGRFTISRDNAKNTVYLQMNSLKPEDTAVYYCATAPGTYYKGSYYPMCHYYGMDYWGKGTQVTVSS
- Kd [1]: 9.43 nM
- koff [1]: 0.00286 s⁻¹
- kon [1]: 303000 M⁻¹ s⁻¹

B2: NIH-CoVnb-108 (VHH, not shown: large carriers)
VHH: DVQLQESGGGLVQPGGSLRLSCAASGFTLDYYAIGWFRQAPGKEREGVSCISNSGGSTYYADSVKGRFTTSRDNAKNTVYLQMNSLKPEDTAVYYCAAVPSTYYSGSYYYTCHPGGMDYWGKGTQVTVSS
- Kd [1]: 26.6 nM
- koff [1]: 0.00109 s⁻¹
- kon [1]: 40900 M⁻¹ s⁻¹

B3: NIH-CoVnb-113 (VHH)
VHH: DVQLQESGGGLVQPGGSLRLSCAASGLTLDYYAIGWFRQAPGKEREGVSCISSSDGSTYYADSVKGRFTTSRDNAKNTVYLQMNSLKPEDTAVYYCAAVPSTYYSGTYYYTCHPGGMDYWGKGTLVTVSS
- Kd [1]: 8.19 nM
- koff [1]: 0.000804 s⁻¹
- kon [1]: 98200 M⁻¹ s⁻¹

B4: NIH-CoVnb-109 (VHH, not shown: large carriers)
VHH: DVQLQESGGGLVQSGGSLRLSCAASGFTLDYYAIGWFRQAPGKEREGVSCITNSDGSTYYADSVKGRFTTSRDNAKNTVYLQMNSLKPEDTAVYYCASFPSTYYSGSYYYTCHPGGMDYWGKGTQVTVSS
- Kd [1]: 58.5 nM
- koff [1]: 0.00188 s⁻¹
- kon [1]: 32100 M⁻¹ s⁻¹

B5: NIH-CoVnb-112 (VHH)
VHH: DVQLQESGGGLVQPGGSLRLSCAASGLTLDYYAIGWFRQAPGKEREGVSCISSSDGSTYYADSVKGRFTTSRDNAKNTVYLQMNSLKPEDTAVYYCAAVPSTYYSGTYYYTCHPGGMDYWGKGTQVTVSS
- binding result [2]: no binding (tested: about 5 µg/mL)
- EC50 [3]: ~0.01 µg/mL
- EC50 [4]: 0.02 µg/mL and 1.11 nM
- koff [5]: 0.000236 s⁻¹
- kon [5]: 223000 M⁻¹ s⁻¹
- EC50 (read off the curve) [6]: ~0.01 µg/mL
- Kd [7]: 2.1 nM
- Kd [8]: 4.9 nM
- koff [8]: 0.000654 s⁻¹
- kon [8]: 130000 M⁻¹ s⁻¹
- koff [9]: 0.000295 s⁻¹
- kon [9]: 141000 M⁻¹ s⁻¹

B6: VHH72 (VHH)
VHH: QVQLQESGGGLVQAGGSLRLSCAASGRTFSEYAMGWFRQAPGKEREFVATISWSGGSTYYTDSVKGRFTISRDNAKNTVYLQMNSLKPDDTAVYYCAAAGLGTVVSEWDYDYDYWGQGTQVTVSS
- binding result [10]: binds
